Data published in article PMC11569192 (Nature Communications, 2024).

Experiments:
[1] = target: DS-Cav1 (respiratory syncytial virus subtype A, strain A2 | not stated) (UniProt P03420); experiment: SEC
[2] = target: DS-Cav1-His6 (respiratory syncytial virus subtype A, strain A2 | not stated) (UniProt P03420); experiment: SEC
[3] = target: DS-Cav1-His6 (respiratory syncytial virus subtype A, strain A2 | not stated) (UniProt P03420); experiment: cross-linking
[4] = target: DS-Cav1-His6 (respiratory syncytial virus subtype A, strain A2 | not stated) (UniProt P03420); experiment: negative-stain EM
[5] = target: SC-TM-His6 (respiratory syncytial virus subtype A, strain A2 | not stated) (UniProt P03420); experiment: SEC
[6] = target: SC-TM-His6 (respiratory syncytial virus subtype A, strain A2 | not stated) (UniProt P03420); experiment: cross-linking
[7] = target: sc9-10 DS-Cav1 (respiratory syncytial virus subtype A, strain A2 | not stated) (UniProt P03420); experiment: SEC
[8] = target: sc9-10 DS-Cav1-His6 (respiratory syncytial virus subtype A, strain A2 | not stated) (UniProt P03420); experiment: SEC
[9] = target: sc9-10 DS-Cav1-His6 (respiratory syncytial virus subtype A, strain A2 | not stated) (UniProt P03420); experiment: cross-linking
sc9-10 DS-Cav1 = target: T1, sc9-10 DS-Cav1 (Human respiratory syncytial virus A, …, S215P | A149C | Y458C | S46G | K465Q); experiment: cell-based or functional assay
T1 chain: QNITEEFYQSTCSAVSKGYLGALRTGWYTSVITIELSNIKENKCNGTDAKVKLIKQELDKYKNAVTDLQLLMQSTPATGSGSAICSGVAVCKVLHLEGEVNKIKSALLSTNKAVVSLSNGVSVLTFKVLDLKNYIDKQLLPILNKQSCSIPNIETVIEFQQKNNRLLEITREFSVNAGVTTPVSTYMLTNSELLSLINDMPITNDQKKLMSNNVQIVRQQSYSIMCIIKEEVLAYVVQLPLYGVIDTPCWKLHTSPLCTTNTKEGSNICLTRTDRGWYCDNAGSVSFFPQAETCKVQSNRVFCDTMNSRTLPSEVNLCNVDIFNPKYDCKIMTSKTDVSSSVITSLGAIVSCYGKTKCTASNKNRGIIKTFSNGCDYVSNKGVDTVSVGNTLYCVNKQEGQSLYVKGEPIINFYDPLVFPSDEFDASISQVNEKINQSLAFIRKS

UFCM1-P2 = UFCM1-P2 (human metapneumovirus, Q1A2Z0 …, UniProt Q1A2Z0, E80D | T127C | N153C | A185P | V155P); experiment: ELISA
UFCM1 = UFCM1 (human metapneumovirus, Q1A2Z0 …, UniProt Q1A2Z0, E80D | T127C | N153C | A185P); experiment: ELISA
847A-His6 = 847A-His6 (human respiratory syncytial virus A, …, UniProt A0A7D5GVC1, I148C | D486S); experiment: ELISA
UFCM1-P2-iSS = target: T2, UFCM1-P2-iSS (Human metapneumovirus, strain NL/1/00 …, stabilised); experiment: negative-stain EM
T2 chain: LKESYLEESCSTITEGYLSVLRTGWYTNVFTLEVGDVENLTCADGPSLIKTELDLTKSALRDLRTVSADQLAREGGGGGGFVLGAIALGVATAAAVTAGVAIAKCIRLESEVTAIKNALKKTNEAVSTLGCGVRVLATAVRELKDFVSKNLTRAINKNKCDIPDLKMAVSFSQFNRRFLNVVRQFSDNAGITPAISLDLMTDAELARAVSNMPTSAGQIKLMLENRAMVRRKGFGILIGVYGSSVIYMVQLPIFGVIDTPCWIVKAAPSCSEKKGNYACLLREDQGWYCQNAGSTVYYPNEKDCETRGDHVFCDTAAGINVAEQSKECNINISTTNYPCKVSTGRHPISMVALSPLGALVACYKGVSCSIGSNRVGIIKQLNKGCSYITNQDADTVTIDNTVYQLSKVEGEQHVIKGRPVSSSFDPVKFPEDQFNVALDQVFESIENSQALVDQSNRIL

DS-Cav1 (from UniProt P03420 137-513) (domain or fragment)
stoichiometry N [1]: 3

DS-Cav1-His6 (from UniProt P03420 137-513) (domain or fragment)
stoichiometry N [2]: 3
stoichiometry N [3]: 3
stoichiometry N [4]: 3

SC-TM-His6 (from UniProt P03420 26-513) (domain or fragment)
stoichiometry N [5]: 3
stoichiometry N [6]: 3

sc9-10 DS-Cav1 (from UniProt P03420 26-513) (domain or fragment)
stoichiometry N [7]: 3

sc9-10 DS-Cav1-His6 (from UniProt P03420 26-513) (domain or fragment)
stoichiometry N [8]: 3
stoichiometry N [9]: 3

B1: A4 scFv-Fc (scFv, V domains shown)
VH: EVQLVESGGGLVQPGGSLRLSCAASGFTFTTYAMHWVRQSPGKGLEWLASISYDGTSQYYAESVKGRFTVSRDNSKKTLLLQVNSLRPEDTAVYYCAGSPSGHYSWLGYFYAMDVWGQGTLVTVSS
VL: QSALTQPASVSGSPGQSITISCTGASSDVGGYDYVSWYQQHPGKAPKLLIYDVSDRPSGVSNRFSGSKSGNTASLTISGLQTEDEADYYCSSYTSKNTLIFGGGTKLTVL
live RSV (RSV-A2-GFP) neutralization, IC50, scFv-Fc form (sc9-10 DS-Cav1): 2.1 ng/mL

B2: MPE8 IgG (antibody, V domains shown)
VH: EVQLVESGGGLVKPGGSLRLSCAASGFTFSSYSMNWVRQAPGKGLEWVSSISASSSYSDYADSAKGRFTISRDNAKTSLFLQMNSLRAEDTAIYFCARARATGYSSITPYFDIWGQGTLVTVSS
VL: QSVVTQTPSVSGAPGQRVTISCTGSSSNIGAGYDVHWYQQLPGTAPKLLIYDNNNRPSGVPDRFSASKSGTSASLAITGLQAEDEADYYCQSYDRNLSGVFGTGTKVTVL
binding result (UFCM1-P2): binds
binding result (UFCM1): binds
binding result (847A-His6): binds

B3: MPE8 Fab (Fab, V domains shown)
VH: B2 VH
VL: B2 VL
stoichiometry N (UFCM1-P2-iSS): 3 Fabs per trimer
